Test results from US20120058953A1, “COMPOSITIONS AND METHODS FOR ENHANCING APOPTOSIS” (Genentech, Inc., priority 2003, published 2012).
Where two headings read alike, the source gives them in different places. One block for each molecule: values may come before it. Non-standard residues stand in square brackets, D forms with d. No end group written: not given here. Phe(4-SO3H) = N[C@@H](Cc1ccc(S(=O)(=O)O)cc1)C(=O)O; Phe(4-I) = N[C@@H](Cc1ccc(I)cc1)C(=O)O

Assays:
ML-IAP-BIR [1] = target: T1, ML-IAP-BIR (Homo sapiens, UniProt Q96CA5); assay: fluorescence polarization competition assay, ML-IAP-BIR; type: binding
T1 construct: made in house; host or cells: Escherichia coli BL21 (DE3)
T1 sequence (Q96CA5 63-179): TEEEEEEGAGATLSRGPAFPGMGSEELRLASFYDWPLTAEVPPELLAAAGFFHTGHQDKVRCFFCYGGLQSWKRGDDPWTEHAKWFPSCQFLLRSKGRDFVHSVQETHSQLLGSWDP
Protocol: (§1) The apparent Kd values can be determined from the EC50 values.
(§2) The vectors pET15b-XIAPBIR2C202AC218G, pET15b-XIAPBIR3, and pET15b-MLIAPBIR were introduced into Escherichia coli strain BL21 (DE3). Overnight cultures were diluted 1:100 and grown at 30° C. in LB media with […] to an A600 of 0.5-0.7 with vigorous shaking. Isopropyl b-D-thiogalactoside (IPTG) was added to a final concentration of 1 mM and cultures were grown for 4 hours at 30° C. One litre of frozen cell pellet was resuspended in 100 ml Buffer A (50 mM Tris [pH 8.0], 300 mM NaCl, 5 mM b-mercaptoethanol, 0.5 mM PMSF, 2 mM benzamidine) with 5 mM imidazole and placed on ice for 30 minutes. Cells were lysed by homogenizing followed by repeated passes through a microfluidizer. Lysate was cleared by centrifugation at 15,000 rpm for 30 minutes. The supernatant was loaded onto a Ni-agarose column (Qiagen), washed with 10 column volumes Buffer A with 10 mM imidazole, and eluted with 10 column volumes Buffer A with 300 mM imidazole. Fractions containing BIR protein were pooled. Final concentrations of 5 mM DTT and 100 mM zinc acetate were added. The pool was concentrated and loaded on a Superdex 75™ (Pharmacia) sizing column. Protein eluted over one column volume into 50 mM Tris 8.0, 300 mM NaCl, 0.5 mM PMSF, 2 mM benzamidine, 5 mM DTT, 50 mM zinc acetate, 1 mM sodium azide. Fractions containing BIR protein were pooled and dialyzed against 4 changes of buffer containing 50 mM Tris (pH 8.0), 120 mM NaCl, 5 mM DTT, 0.5 mM PMSF, 2 mM benzamidine, 50 mM zinc acetate, 1 mM sodium azide. Protein was concentrated and stored at −80° C. for further characterization.
(§3) The apparent Kd values were determined from the EC50 values. […] Samples were read after a 10-minute incubation.

XIAP-BIR2 [2] = target: T2, XIAP-BIR2 (Homo sapiens, UniProt P98170, C202A/C213G); assay: fluorescence polarization competition assay, XIAP-BIR2; type: binding
T2 construct: X-IAP BIR2 (amino acid residues 124-240 with mutations C202A and C213G); made in house; host or cells: Escherichia coli BL21 (DE3)
T2 sequence (P98170 124-240 C202A/C213G): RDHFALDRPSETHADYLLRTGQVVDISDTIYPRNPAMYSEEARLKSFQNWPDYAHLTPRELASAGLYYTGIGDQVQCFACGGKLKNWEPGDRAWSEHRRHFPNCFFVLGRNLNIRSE
Protocol: as §1, §2, §3

XIAP-BIR3 [3] = target: T3, XIAP-BIR3 (Homo sapiens, UniProt P98170); assay: fluorescence polarization competition assay, XIAP-BIR3; type: binding
T3 construct: X-IAP BIR3 (amino acids residues 241-356); made in house; host or cells: Escherichia coli BL21 (DE3)
T3 sequence (P98170 241-356): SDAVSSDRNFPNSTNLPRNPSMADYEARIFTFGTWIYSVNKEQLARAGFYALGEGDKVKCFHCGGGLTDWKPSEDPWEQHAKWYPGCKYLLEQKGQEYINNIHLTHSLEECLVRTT
Protocol: as §1, §2, §3

U87MG glioma cells = details: athymic mice; Fulda et al. (2002); cited from earlier work
XIAP-BIR3 [4] = target: T4, XIAP-BIR3 (human, UniProt P98170 241-356); assay: fluorescence polarization competition, SMAC-FAM or Hid-FAM probe
T4 construct: range 241-356; Expressed in E. coli from pET15b and purified on Ni-agarose
T4 sequence (P98170 241-356 limits assumed): as the sequence (P98170 241-356) above
Source text: (§4) The Kᵢ values for the mutant peptides relative to the Kᵢ of [sequence]

ML-IAP-BIR [5] = target: T5, ML-IAP-BIR (human, UniProt Q96CA5 63-179); assay: fluorescence polarization competition, SMAC-FAM probe
T5 construct: range 63-179; Expressed in E. coli from pET15b and purified on Ni-agarose; also called BIR domain of ML-IAP
T5 sequence (looked up): T1 sequence (Q96CA5 63-179)

XIAP-BIR2 [6] = target: T6, XIAP-BIR2 (human, UniProt P98170 124-240); assay: fluorescence polarization competition, SMAC-FAM or Hid-FAM probe
T6 construct: range 124-240; The text says C213G, the vector name reads pET15b-XIAPBIR2C202AC218G; Expressed in E. coli from pET15b
T6 sequence (P98170 124-240 C202A/C213G limits assumed): as the sequence (P98170 124-240 C202A/C213G) above
Source text: as §4

ML-IAP-BIR [7] = target: T5, ML-IAP-BIR; assay: as above
Source text: as §4

XIAP-BIR3 [8] = target: T4, XIAP-BIR3; assay: fluorescence polarization competition, SMAC-FAM probe
ML-IAP-BIR [9] = target: T5, ML-IAP-BIR; assay: as above; remark: listed apart in the source
XIAP-BIR2 [10] = target: T6, XIAP-BIR2; assay: as above
XIAP-BIR3 [11] = target: T4, XIAP-BIR3; assay: as above; remark: listed apart in the source
[12] = Table 4, P4 amino acid/phenylethylamine scan, Hid-FAM probe

- Ki (ML-IAP-BIR [1]; [12]): 0.15 µM
Molecule: COC[C@H](Cc1ccccc1)NC(=O)[C@@H]1CCCN1C(=O)[C@@H](NC(=O)[C@H](C)N)C(C)C [AVPX38]

- Ki (ML-IAP-BIR [1]; [12]): 0.68 µM
Molecule: CC(C)[C@H](NC(=O)[C@H](C)N)C(=O)N1CCC[C@H]1C(=O)NCCc1cccc(Cl)c1 [AVPX39]

- Ki (ML-IAP-BIR [1]; [12]): 0.3 µM
Molecule: CCOc1ccccc1CCNC(=O)[C@@H]1CCCN1C(=O)[C@@H](NC(=O)[C@H](C)N)C(C)C [AVPX40]

- Ki (XIAP-BIR2 [2]): 2.5 µM
- Ki (ML-IAP-BIR [1]): 9.3 µM
- Ki (XIAP-BIR3 [3]): > 64 µM
Molecule: AEAVAWKSE

- Ki (XIAP-BIR2 [2]): 8.7 µM
- Ki (ML-IAP-BIR [1]): 0.44 µM
- Ki (XIAP-BIR3 [3]): 0.59 µM
Molecule: AIPFEEKSE

- Ki (XIAP-BIR2 [2]): 5.7 µM
- Ki (ML-IAP-BIR [1]): 4.3 µM
- Ki (XIAP-BIR3 [3]): > 64 µM
Molecule: ATAVIEKSE

- Ki (XIAP-BIR2 [2]): 6.9 µM
- Ki (ML-IAP-BIR [1]): 0.42 µM
- Ki (XIAP-BIR3 [3]): 0.54 µM
Molecule: AVPWGLKSE

B1: APO2L/TRAIL: pro-apoptotic polypeptide APO2L/TRAIL (Accession Number: TN10_HUMAN) (protein, UniProt P50591 1-281, looked up)
Tumor necrosis factor ligand …: MAMMEVQGGPSLGQTCVLIVIFTVLLQSLCVAVTYVYFTNELKQMQDKYSKSGIACFLKEDDSYWDPNDEESMNSPCWQVKWQLRQLVRKMILRTSEETISTVQEKQQNISPLVRERGPQRVAAHITGTRGRSNTLSSPNSKNEKALGRKINSWESSRSGHSFLSNLHLRNGELVIHEKGFYYIYSQTYFRFQEEIKENTKNDKQMVQYIYKYTSYPDPILLMKSARNSCWSKDAEYGLYSIYQGGIFELKENDRIFVSVTNEHLIDMDHEASFFGAFLVG
- effect on established tumor (U87MG glioma cells): reduction in size of the tumor

- Ki (XIAP-BIR3 [4]): 8.5 µM
Molecule: AVP[Phe(4-SO3H)]AQKSE [AVPX2AQKSE]

- Ki (ML-IAP-BIR [5]): 6 µM
Molecule: AVGVPWKSE

- Ki (XIAP-BIR2 [6]): 27.7 µM
- Ki (ML-IAP-BIR [7]): 0.45 µM
Molecule: AVP[Phe(4-I)]AQKSE [AVPX10AQKSE]

- fold weaker than the SMAC-based peptide (XIAP-BIR3 [8]): > 100 fold
- fold specificity for ML-IAP-BIR relative to XIAP-BIR3 (ML-IAP-BIR [9]): > 10 fold
- fold weaker than the SMAC-based peptide (ML-IAP-BIR [9]): ~10 fold
- Ki (XIAP-BIR2 [10]): 5.7 µM
- Ki (ML-IAP-BIR [5]): 4.3 µM
Molecule: ATAVIEKSE

- Ki (XIAP-BIR2 [6]): 229 µM
- Ki (ML-IAP-BIR [7]): 7.9 µM
Molecule: AVPXAQKSE (X7 at position 4 is cyclopentylalanine) [AVPX7AQKSE]

- fold weaker than the SMAC-based peptide (XIAP-BIR3 [8]): > 100 fold
- fold specificity for ML-IAP-BIR relative to XIAP-BIR3 (ML-IAP-BIR [9]): > 10 fold
- fold weaker than the SMAC-based peptide (ML-IAP-BIR [9]): ~10 fold
- Ki (XIAP-BIR2 [10]): 2.5 µM
- Ki (ML-IAP-BIR [5]): 9.3 µM
Molecule: AEAVAWKSE

- Ki (ML-IAP-BIR [5]): 7 µM
Molecule: AQAVAWKSE

- Ki (XIAP-BIR2 [10]): 3.6 µM
Molecule: AEAVPWKSE

- Ki (XIAP-BIR2 [10]): 6.9 µM
- Ki (XIAP-BIR3 [11]): 0.54 µM
- Ki (ML-IAP-BIR [5]): 0.42 µM
Molecule: AVPWGLKSE

- Ki (ML-IAP-BIR [5]): 0.33 µM
Molecule: AVPWIGKSE

- Ki (XIAP-BIR2 [10]): 8.7 µM
- Ki (XIAP-BIR3 [11]): 0.59 µM
- Ki (ML-IAP-BIR [5]): 0.44 µM
Molecule: AIPFEEKSE
